The record followed here is US20210292422A1 (SURROZEN, published 2021).

In one test the target is T1, LRP6E1E2 (UniProt O75581 20-630).
T1 construct: domain: E1E2; also called LRP6 E1E2 domains
T1 sequence (looked up): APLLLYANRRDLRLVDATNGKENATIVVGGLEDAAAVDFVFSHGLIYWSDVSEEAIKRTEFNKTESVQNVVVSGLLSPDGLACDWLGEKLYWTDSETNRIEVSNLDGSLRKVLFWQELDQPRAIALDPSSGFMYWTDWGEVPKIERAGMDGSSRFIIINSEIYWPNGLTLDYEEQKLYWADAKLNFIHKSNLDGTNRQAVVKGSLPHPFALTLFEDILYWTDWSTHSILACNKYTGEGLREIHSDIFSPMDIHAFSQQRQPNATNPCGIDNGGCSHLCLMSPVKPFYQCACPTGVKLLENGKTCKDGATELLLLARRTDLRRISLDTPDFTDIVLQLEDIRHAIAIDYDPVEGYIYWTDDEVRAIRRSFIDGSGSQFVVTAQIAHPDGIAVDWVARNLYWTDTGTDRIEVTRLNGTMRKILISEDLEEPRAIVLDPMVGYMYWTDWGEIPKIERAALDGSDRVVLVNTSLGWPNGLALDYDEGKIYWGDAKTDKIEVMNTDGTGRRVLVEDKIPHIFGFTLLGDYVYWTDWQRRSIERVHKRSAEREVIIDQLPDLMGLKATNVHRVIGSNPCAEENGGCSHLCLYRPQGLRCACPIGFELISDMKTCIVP
Put plainly: BLI (Octet), FIG. 12E.

The target in test [1] is T2, LRP6E3E4 (UniProt O75581 631-1246).
T2 construct: domain: E3E4
T2 sequence (looked up): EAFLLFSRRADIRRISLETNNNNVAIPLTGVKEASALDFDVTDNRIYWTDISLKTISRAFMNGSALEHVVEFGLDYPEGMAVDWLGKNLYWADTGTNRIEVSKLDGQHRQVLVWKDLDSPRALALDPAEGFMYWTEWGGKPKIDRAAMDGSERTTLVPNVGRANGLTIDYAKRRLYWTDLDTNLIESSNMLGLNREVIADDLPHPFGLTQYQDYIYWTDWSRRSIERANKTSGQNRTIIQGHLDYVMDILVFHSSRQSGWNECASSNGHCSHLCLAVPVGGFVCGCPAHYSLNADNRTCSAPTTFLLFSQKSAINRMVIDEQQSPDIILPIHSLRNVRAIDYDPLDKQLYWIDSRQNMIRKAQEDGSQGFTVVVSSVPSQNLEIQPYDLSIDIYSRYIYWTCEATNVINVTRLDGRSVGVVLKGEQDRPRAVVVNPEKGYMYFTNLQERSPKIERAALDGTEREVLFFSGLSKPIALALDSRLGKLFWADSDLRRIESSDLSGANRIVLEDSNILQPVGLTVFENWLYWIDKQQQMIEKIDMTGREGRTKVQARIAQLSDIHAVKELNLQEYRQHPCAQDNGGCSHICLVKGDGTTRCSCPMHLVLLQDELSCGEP
Put plainly: BLI (Octet), sequential: FZD8 CRD on sensor, tandem scFv, then LRP6 E3E4.

A further test deals with T3, FZD8 CRD (UniProt Q9H461 30-151).
T3 construct: domain: CRD
T3 sequence (looked up): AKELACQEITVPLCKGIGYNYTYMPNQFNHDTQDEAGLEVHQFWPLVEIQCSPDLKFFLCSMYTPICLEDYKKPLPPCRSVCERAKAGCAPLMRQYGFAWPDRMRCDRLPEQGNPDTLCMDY
The test is described as above.

Test [2] concerns the target T2, LRP6E3E4. Description: BLI (Octet), FIG. 12E.

B1: L1:5:αGFP:Fc (bispecific antibody)
chain: DVKLVESGGGLVKLGGSLRLSCAASGFSFSTSYMSWVRQTPEKRLELVAAINLNGGSTYYSDTVKGRFTISRDNAKNTLYLQMSSLKSEDTAFYYCASELAGYGTPFAYWGQGTLVTVSAGSAASGSSGGSSSGADIVLTQSPATLSVTPGDSVSLSCKASQSISYNLHWYQQKSHESPRLLIKYTSQSISGIPSRFSGSGSGTDFTLTINNVETEDFGMYFCQQSNSWPLTFGAGTKLEVKGSGSGQVQLVESGGGLVQPGGSLRLSCAASGFTFSRYGMHWVRQAPGKGLEWVSGISSIGSNTYYADSVKGRFTISRDNSKNTLYLQMNSLRAEDTAVYYCARWYKTYIDVWGQGTLVTVSSGGGGSGGGGSGGGGSDIELTQPPSVSVAPGQTARISCSGDNLGKKYVYWYQQKPGQAPVLVIYGDDERPSGIPERFSGSNSGNTATLTISGTQAEDEADYYCASYDSSHILIVFGGGTKLTVLGSGSGDKTHTCPPCPAPEAAGGPSVFLFPPKPKDTLMISRTPEVTCVVVDVSHEDPEVKFNWYVDGVEVHNAKTKPREEQYNSTYRVVSVLTVLHQDWLNGKEYKCKVSNKALGAPIEKTISKAKGQPREPQVYTLPPSREEMTKNQVSLTCLVKGFYPSDIAVEWESNGQPENNYKTTPPVLDSDGSFFLYSKLTVDKSRWQQGNVFSCSVMHEALHNHYTQKSLSLSPGK
notes: 0FZD:2LRP control
With B1, the binding result with LRP6E1E2 was “binds”.

B2: αGFP:5:L1:Fc (bispecific antibody)
chain: QVQLVESGGGLVQPGGSLRLSCAASGFTFSRYGMHWVRQAPGKGLEWVSGISSIGSNTYYADSVKGRFTISRDNSKNTLYLQMNSLRAEDTAVYYCARWYKTYIDVWGQGTLVTVSSGGGGSGGGGSGGGGSDIELTQPPSVSVAPGQTARISCSGDNLGKKYVYWYQQKPGQAPVLVIYGDDERPSGIPERFSGSNSGNTATLTISGTQAEDEADYYCASYDSSHILIVFGGGTKLTVLGSGSGDVKLVESGGGLVKLGGSLRLSCAASGFSFSTSYMSWVRQTPEKRLELVAAINLNGGSTYYSDTVKGRFTISRDNAKNTLYLQMSSLKSEDTAFYYCASELAGYGTPFAYWGQGTLVTVSAGSAASGSSGGSSSGADIVLTQSPATLSVTPGDSVSLSCKASQSISYNLHWYQQKSHESPRLLIKYTSQSISGIPSRFSGSGSGTDFTLTINNVETEDFGMYFCQQSNSWPLTFGAGTKLEVKGSGSGDKTHTCPPCPAPEAAGGPSVFLFPPKPKDTLMISRTPEVTCVVVDVSHEDPEVKFNWYVDGVEVHNAKTKPREEQYNSTYRVVSVLTVLHQDWLNGKEYKCKVSNKALGAPIEKTISKAKGQPREPQVYTLPPSREEMTKNQVSLTCLVKGFYPSDIAVEWESNGQPENNYKTTPPVLDSDGSFFLYSKLTVDKSRWQQGNVFSCSVMHEALHNHYTQKSLSLSPGK
notes: 0FZD:2LRP control
B2: the binding result in the test with LRP6E1E2 is “binds”.

B3: F3:5:L2_His (bispecific antibody)
chain: EVQLVESGGGLVQPGGSLRLSCAASGFNISYSYIHWVRQAPGKGLEWVASIYSSSGSTSYADSVKGRFTISADTSKNTAYLQMNSLRAEDTAVYYCARGAIDYWGQGTLVTVSSGGGGSGGGGSGGGGSDIQMTQSPSSLSASVGDRVTITCRASQSVSSAVAWYQQKPGKAPKLLIYSASSLYSGVPSRFSGSRSGTDFTLTISSLQPEDFATYYCQQWYSSGHVLITFGQGTKVEIKGSGSGEVQLVESGGGLVQPGGSLRLSCAASGFTFTSYYISWVRQAPGKGLEWVAEISPYSGSTYYADSVKGRFTISADTSKNTAYLQMNSLRAEDTAVYYCALRARPPIRLHPRGSVMDYWGQGTLVTVSSGSAASGSSGGSSSGADIQMTQSPSSLSASVGDRVTITCRASQDVSTAVAWYQQKPGKAPKLLIYSASFLYSGVPSRFSGSGSGTDFTLTISSLQPEDFATYYCQQSYTTPPTFGQGTKVEIKGSGSGHHHHHH
notes: 1:1 tandem scFv
As to B3, the binding result with LRP6E3E4 [1] and with FZD8 CRD was “binds” in each case.

B4: αGFP:5:L2:Fc (bispecific antibody)
chain: QVQLVESGGGLVQPGGSLRLSCAASGFTFSRYGMHWVRQAPGKGLEWVSGISSIGSNTYYADSVKGRFTISRDNSKNTLYLQMNSLRAEDTAVYYCARWYKTYIDVWGQGTLVTVSSGGGGSGGGGSGGGGSDIELTQPPSVSVAPGQTARISCSGDNLGKKYVYWYQQKPGQAPVLVIYGDDERPSGIPERFSGSNSGNTATLTISGTQAEDEADYYCASYDSSHILIVFGGGTKLTVLGSGSGEVQLVESGGGLVQPGGSLRLSCAASGFTFTSYYISWVRQAPGKGLEWVAEISPYSGSTYYADSVKGRFTISADTSKNTAYLQMNSLRAEDTAVYYCALRARPPIRLHPRGSVMDYWGQGTLVTVSSGSAASGSSGGSSSGADIQMTQSPSSLSASVGDRVTITCRASQDVSTAVAWYQQKPGKAPKLLIYSASFLYSGVPSRFSGSGSGTDFTLTISSLQPEDFATYYCQQSYTTPPTFGQGTKVEIKGSGSGDKTHTCPPCPAPEAAGGPSVFLFPPKPKDTLMISRTPEVTCVVVDVSHEDPEVKFNWYVDGVEVHNAKTKPREEQYNSTYRVVSVLTVLHQDWLNGKEYKCKVSNKALGAPIEKTISKAKGQPREPQVYTLPPSREEMTKNQVSLTCLVKGFYPSDIAVEWESNGQPENNYKTTPPVLDSDGSFFLYSKLTVDKSRWQQGNVFSCSVMHEALHNHYTQKSLSLSPGK
notes: 0FZD:2LRP control
Turning to B4, the binding result with LRP6E3E4 [2] is “binds”.

B5: L2:5:αGFP:Fc (bispecific antibody)
chain: EVQLVESGGGLVQPGGSLRLSCAASGFTFTSYYISWVRQAPGKGLEWVAEISPYSGSTYYADSVKGRFTISADTSKNTAYLQMNSLRAEDTAVYYCALRARPPIRLHPRGSVMDYWGQGTLVTVSSGSAASGSSGGSSSGADIQMTQSPSSLSASVGDRVTITCRASQDVSTAVAWYQQKPGKAPKLLIYSASFLYSGVPSRFSGSGSGTDFTLTISSLQPEDFATYYCQQSYTTPPTFGQGTKVEIKGSGSGQVQLVESGGGLVQPGGSLRLSCAASGFTFSRYGMHWVRQAPGKGLEWVSGISSIGSNTYYADSVKGRFTISRDNSKNTLYLQMNSLRAEDTAVYYCARWYKTYIDVWGQGTLVTVSSGGGGSGGGGSGGGGSDIELTQPPSVSVAPGQTARISCSGDNLGKKYVYWYQQKPGQAPVLVIYGDDERPSGIPERFSGSNSGNTATLTISGTQAEDEADYYCASYDSSHILIVFGGGTKLTVLGSGSGDKTHTCPPCPAPEAAGGPSVFLFPPKPKDTLMISRTPEVTCVVVDVSHEDPEVKFNWYVDGVEVHNAKTKPREEQYNSTYRVVSVLTVLHQDWLNGKEYKCKVSNKALGAPIEKTISKAKGQPREPQVYTLPPSREEMTKNQVSLTCLVKGFYPSDIAVEWESNGQPENNYKTTPPVLDSDGSFFLYSKLTVDKSRWQQGNVFSCSVMHEALHNHYTQKSLSLSPGK
notes: 0FZD:2LRP control
On to B5, for which, in the test with LRP6E3E4 [2], the binding result is “binds”.

B6: L2:5:F3_His (bispecific antibody)
chain: EVQLVESGGGLVQPGGSLRLSCAASGFTFTSYYISWVRQAPGKGLEWVAEISPYSGSTYYADSVKGRFTISADTSKNTAYLQMNSLRAEDTAVYYCALRARPPIRLHPRGSVMDYWGQGTLVTVSSGSAASGSSGGSSSGADIQMTQSPSSLSASVGDRVTITCRASQDVSTAVAWYQQKPGKAPKLLIYSASFLYSGVPSRFSGSGSGTDFTLTISSLQPEDFATYYCQQSYTTPPTFGQGTKVEIKGSGSGEVQLVESGGGLVQPGGSLRLSCAASGFNISYSYIHWVRQAPGKGLEWVASIYSSSGSTSYADSVKGRFTISADTSKNTAYLQMNSLRAEDTAVYYCARGAIDYWGQGTLVTVSSGGGGSGGGGSGGGGSDIQMTQSPSSLSASVGDRVTITCRASQSVSSAVAWYQQKPGKAPKLLIYSASSLYSGVPSRFSGSRSGTDFTLTISSLQPEDFATYYCQQWYSSGHVLITFGQGTKVEIKGSGSGHHHHHH
notes: 1:1 tandem scFv
Consider B6, for which the binding result with LRP6E3E4 [1] and with FZD8 CRD was “binds” each time.
